Data reported in the supplement of paper PMC9112550, “Optimization of the antimicrobial peptide Bac7 by deep mutational scanning” (BMC Biology, 2022).

Test system: Escherichia coli TOP10
Test: shrunken log2 fold change of peptide-encoding DNA abundance (4.5 h post-induction vs induction); higher = less antimicrobial activity (less host growth inhibition)
Conditions: time post-induction: 4.5 h; library: site-saturation at positions 5, 18, 19, 20
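Further: peptides expressed intracellularly from a pBAD plasmid library in pooled LB shake-flask culture, induced with 0.3% L-arabinose, DNA abundance read by NGS, three biological replicates, DESeq2 with apeglm shrinkage.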

Sequence	shrunken log2 fold change
RRIRPRPPRLPRPRPRPRCKPRP	0.215
RRIRERPPRLPRPRPRPDPQPRP	-0.102
RRIRVRPPRLPRPRPRPCYTPRP	-0.498
RRIRYRPPRLPRPRPRPQIFPRP	0.0295
RRIRERPPRLPRPRPRPQFGPRP	0.222
RRIRSRPPRLPRPRPRPFEMPRP	-0.353
RRIRGRPPRLPRPRPRPEFRPRP	0.634
RRIRTRPPRLPRPRPRPDTEPRP	-0.072
RRIRARPPRLPRPRPRPIGFPRP	-0.0732
RRIRVRPPRLPRPRPRPDDIPRP	-0.442
RRIRERPPRLPRPRPRPYNCPRP	0.275
RRIRRRPPRLPRPRPRPMMMPRP	0.0332
RRIRMRPPRLPRPRPRPRHVPRP	0.437
RRIRCRPPRLPRPRPRPQPNPRP	0.0742
RRIRFRPPRLPRPRPRPQTKPRP	-0.142
RRIRHRPPRLPRPRPRPTVEPRP	-0.0265
RRIRARPPRLPRPRPRPRDQPRP	0.499
RRIRARPPRLPRPRPRPMKRPRP	0.223
RRIRYRPPRLPRPRPRPDEFPRP	0.0196
RRIRGRPPRLPRPRPRPHCDPRP	3.63
RRIRARPPRLPRPRPRPCIVPRP	-0.233
RRIRYRPPRLPRPRPRPAPRPRP	0.57
RRIRKRPPRLPRPRPRPWRFPRP	0.234
RRIRKRPPRLPRPRPRPMLRPRP	0.308
RRIRIRPPRLPRPRPRPAWHPRP	0.031

Sequence	shrunken log2 fold change
RRIRERPPRLPRPRPRPCMVPRP	-1.08
RRIRIRPPRLPRPRPRPTHKPRP	0.201
RRIRSRPPRLPRPRPRPSVDPRP	0.0566
RRIRTRPPRLPRPRPRPYAGPRP	-0.14
RRIRTRPPRLPRPRPRPYILPRP	-0.0244
RRIRNRPPRLPRPRPRPRYGPRP	-0.0289
RRIRWRPPRLPRPRPRPDIIPRP	0.0562
RRIRVRPPRLPRPRPRPHDVPRP	-0.116
RRIRSRPPRLPRPRPRPQVEPRP	0.0664
RRIRKRPPRLPRPRPRPVSRPRP	0.652
RRIRSRPPRLPRPRPRPLDPPRP	-0.0203
RRIRHRPPRLPRPRPRPAYDPRP	-0.265
RRIRERPPRLPRPRPRPIETPRP	-0.00369
RRIRLRPPRLPRPRPRPEMFPRP	-0.00904
RRIRSRPPRLPRPRPRPYWGPRP	-0.0576
RRIRCRPPRLPRPRPRPWKQPRP	-0.181
RRIRIRPPRLPRPRPRPTFVPRP	-0.582
RRIRTRPPRLPRPRPRPNFDPRP	0.232
RRIRWRPPRLPRPRPRPYFKPRP	-0.839
RRIRLRPPRLPRPRPRPRQIPRP	0.211
RRIRNRPPRLPRPRPRPRGMPRP	0.151
RRIRVRPPRLPRPRPRPKIVPRP	0.2
RRIRERPPRLPRPRPRPGSEPRP	-0.0924
RRIRSRPPRLPRPRPRPLYRPRP	-0.346
RRIRNRPPRLPRPRPRPPHPPRP	0.292

Sequence	shrunken log2 fold change
RRIRARPPRLPRPRPRPKACPRP	0.19
RRIRQRPPRLPRPRPRPMQWPRP	0.0039
RRIRCRPPRLPRPRPRPGVSPRP	0.0886
RRIRGRPPRLPRPRPRPYAPPRP	0.116
RRIRERPPRLPRPRPRPNVKPRP	-0.195
RRIRFRPPRLPRPRPRPELTPRP	0.136
RRIRCRPPRLPRPRPRPCSVPRP	-0.177
RRIRERPPRLPRPRPRPEMHPRP	0.0332
RRIRVRPPRLPRPRPRPCEPPRP	0.137
RRIRERPPRLPRPRPRPVDAPRP	-0.137
RRIRERPPRLPRPRPRPPNIPRP	-0.207
RRIRTRPPRLPRPRPRPPPEPRP	0.643
RRIRERPPRLPRPRPRPFERPRP	0.00782
RRIRSRPPRLPRPRPRPMEDPRP	0.189
RRIRDRPPRLPRPRPRPTRNPRP	0.174
RRIRKRPPRLPRPRPRPECMPRP	1.58
RRIRRRPPRLPRPRPRPRKFPRP	0.491
RRIRNRPPRLPRPRPRPQNVPRP	-0.0764
RRIRIRPPRLPRPRPRPFHHPRP	0.0886
RRIRHRPPRLPRPRPRPMYTPRP	0.588
RRIRARPPRLPRPRPRPWRAPRP	0.338
RRIRGRPPRLPRPRPRPAVMPRP	0.946
RRIRHRPPRLPRPRPRPMNEPRP	-0.275
RRIRQRPPRLPRPRPRPQDNPRP	-0.304
RRIRWRPPRLPRPRPRPNKYPRP	-0.481

Sequence	shrunken log2 fold change
RRIRCRPPRLPRPRPRPWTLPRP	-0.282
RRIRPRPPRLPRPRPRPFEMPRP	0.0143
RRIRARPPRLPRPRPRPNFEPRP	0.356
RRIRPRPPRLPRPRPRPEKTPRP	0.037
RRIRARPPRLPRPRPRPPIWPRP	0.507
RRIRCRPPRLPRPRPRPFEIPRP	-0.341
RRIRDRPPRLPRPRPRPRGDPRP	0.231
RRIRWRPPRLPRPRPRPRTKPRP	1.88
RRIRSRPPRLPRPRPRPYLPPRP	-0.552
RRIRTRPPRLPRPRPRPAAAPRP	0.618
RRIRTRPPRLPRPRPRPIHAPRP	-0.0176
RRIRLRPPRLPRPRPRPAGFPRP	0.46
RRIRSRPPRLPRPRPRPKYRPRP	0.127
RRIRTRPPRLPRPRPRPSATPRP	0.273
RRIRKRPPRLPRPRPRPVEHPRP	0.455
RRIRLRPPRLPRPRPRPDNQPRP	-0.889
RRIRLRPPRLPRPRPRPIGWPRP	0.156
RRIRRRPPRLPRPRPRPRCSPRP	0.152
RRIRVRPPRLPRPRPRPDVGPRP	-0.13
RRIRQRPPRLPRPRPRPLWMPRP	-0.165
RRIRSRPPRLPRPRPRPWMRPRP	0.709
RRIRFRPPRLPRPRPRPKNFPRP	0.0482
RRIRVRPPRLPRPRPRPRTPPRP	0.555
RRIRKRPPRLPRPRPRPSINPRP	0.0278
RRIRCRPPRLPRPRPRPFCTPRP	-0.401

Sequence	shrunken log2 fold change
RRIRTRPPRLPRPRPRPEEVPRP	-0.0075
RRIRHRPPRLPRPRPRPWPLPRP	-0.306
RRIRNRPPRLPRPRPRPYPHPRP	-0.0269
RRIRPRPPRLPRPRPRPQHKPRP	-0.449
RRIRERPPRLPRPRPRPALAPRP	0.432
RRIRKRPPRLPRPRPRPSNCPRP	-0.309
RRIRLRPPRLPRPRPRPYLFPRP	-0.602
RRIRLRPPRLPRPRPRPLWNPRP	-0.228
RRIRCRPPRLPRPRPRPRIWPRP	0.0951
RRIRYRPPRLPRPRPRPGCQPRP	0.0142
RRIRKRPPRLPRPRPRPPDAPRP	1.35
RRIRKRPPRLPRPRPRPMQHPRP	0.589
RRIRVRPPRLPRPRPRPELLPRP	0.0724
RRIRFRPPRLPRPRPRPLVYPRP	-0.631
RRIRCRPPRLPRPRPRPYSVPRP	-0.0508
RRIRARPPRLPRPRPRPSCVPRP	0.157
RRIRKRPPRLPRPRPRPLYFPRP	-0.271
RRIRSRPPRLPRPRPRPYVHPRP	-0.175
RRIRMRPPRLPRPRPRPNDHPRP	-0.0869
RRIRGRPPRLPRPRPRPVLNPRP	0.469
RRIRVRPPRLPRPRPRPDCAPRP	0.0509
RRIRHRPPRLPRPRPRPVCDPRP	-0.41
RRIRGRPPRLPRPRPRPSKSPRP	-0.0596
RRIRHRPPRLPRPRPRPHPQPRP	-0.185
RRIRMRPPRLPRPRPRPWMPPRP	0.0554

Sequence	shrunken log2 fold change
RRIRLRPPRLPRPRPRPNGDPRP	-0.00192
RRIRMRPPRLPRPRPRPECSPRP	0.333
RRIRARPPRLPRPRPRPYKGPRP	-0.144
RRIRYRPPRLPRPRPRPWSVPRP	-0.554
RRIRFRPPRLPRPRPRPGHVPRP	-0.447
RRIRMRPPRLPRPRPRPSWGPRP	0.155
RRIRNRPPRLPRPRPRPKTNPRP	0.0551
RRIRWRPPRLPRPRPRPRLEPRP	0.778
RRIRHRPPRLPRPRPRPKQLPRP	-0.553
RRIRIRPPRLPRPRPRPAEHPRP	0.0405
RRIRSRPPRLPRPRPRPFWIPRP	-0.299
RRIRHRPPRLPRPRPRPISLPRP	-0.234
RRIRIRPPRLPRPRPRPDMPPRP	-0.109
RRIRGRPPRLPRPRPRPFGEPRP	0.793
RRIRCRPPRLPRPRPRPREQPRP	0.312
RRIRYRPPRLPRPRPRPKVYPRP	-1.13
RRIRFRPPRLPRPRPRPAIAPRP	0.0519
RRIRERPPRLPRPRPRPGYPPRP	-0.216
RRIRARPPRLPRPRPRPMQKPRP	0.222
RRIRGRPPRLPRPRPRPLFIPRP	-0.234
RRIRQRPPRLPRPRPRPKQIPRP	-0.103
RRIRCRPPRLPRPRPRPSAKPRP	0.189
RRIRFRPPRLPRPRPRPCRIPRP	-2.21
RRIRHRPPRLPRPRPRPDKWPRP	-0.395
RRIRRRPPRLPRPRPRPKGQPRP	0.176
